Test results as given in the supplement of paper PMC9233669.
This sample holds only a part of the variants without activity.

Tests used:
[1] = tested on: biotinyl-Phe-oxazolone; assay: self-aminoacylation, catalytic enhancement (BFO) (fold over background); higher = more active; k-Seq, kA / k0A0; sequences stand for … in GGGAAUGGAUCCACAUCUACGAAUUC…UUCACUGCAGACUUGACGAAGCUG
Procedure, shortened: (§1)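 The uncatalyzed rate is the low-activity peak of a bimodal Gaussian fit, and catalytic enhancement is median kA divided by it. The kA values came from pseudo-first-order fits, with 1000 bootstraps, of per-sequence fraction reacted measured by streptavidin capture, triplicate qPCR and Illumina sequencing. Mutagenized RNA pools with a 21-nt variable region (0.43 μM) were reacted with each biotinyl-aminoacyl-oxazolone at 2–1250 μM in 50 μL HEPES/NaCl/KCl/MgCl2/CaCl2 buffer with 5% acetonitrile, pH 6.9–7.0, for 90 minutes at room temperature.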

[2] = tested on: biotinyl-Leu-oxazolone; assay: self-aminoacylation, catalytic enhancement (BLO) (fold over background); higher = more active; k-Seq, kA / k0A0; sequences stand for … in GGGAAUGGAUCCACAUCUACGAAUUC…UUCACUGCAGACUUGACGAAGCUG
Procedure, shortened: as §1

[3] = tested on: biotinyl-Ile-oxazolone; assay: self-aminoacylation, catalytic enhancement (BIO) (fold over background); higher = more active; k-Seq, kA / k0A0; sequences stand for … in GGGAAUGGAUCCACAUCUACGAAUUC…UUCACUGCAGACUUGACGAAGCUG
Procedure, shortened: as §1

[4] = tested on: biotinyl-Met-oxazolone; assay: self-aminoacylation, catalytic enhancement (BMO) (fold over background); higher = more active; k-Seq, kA / k0A0; sequences stand for … in GGGAAUGGAUCCACAUCUACGAAUUC…UUCACUGCAGACUUGACGAAGCUG
Procedure, shortened: as §1

[5] = tested on: biotinyl-Trp-oxazolone; assay: self-aminoacylation, catalytic enhancement (BWO) (fold over background); higher = more active; k-Seq, kA / k0A0; sequences stand for … in GGGAAUGGAUCCACAUCUACGAAUUC…UUCACUGCAGACUUGACGAAGCUG
Procedure, shortened: as §1

[6] = tested on: biotinyl-Val-oxazolone; assay: self-aminoacylation, catalytic enhancement (BVO) (fold over background); higher = more active; k-Seq, kA / k0A0; sequences stand for … in GGGAAUGGAUCCACAUCUACGAAUUC…UUCACUGCAGACUUGACGAAGCUG
Procedure, shortened: as §1

| Sequence | self-aminoacylation [1] | self-aminoacylation [2] | self-aminoacylation [3] | self-aminoacylation [4] | self-aminoacylation [5] | self-aminoacylation [6] |
| --- | --- | --- | --- | --- | --- | --- |
| CUAAUUUAAACAAUCGGUCUG [Fam1A.1 aminoacylation ribozyme variant] | 0.662 | 0.791 | 0.9 | 0.866 | 0.6 | 0.872 |
| CUACACUCCAAGCAAUCGGUC [Fam1B.1 aminoacylation ribozyme variant] | 2.74 | 0.747 | 0.949 | 0.76 | 1.22 | 0.934 |
| CUACACUUCAAGCAAGCGGUC [Fam1B.1 aminoacylation ribozyme variant] | 0.583 | 0.772 | 0.719 | 0.62 | 0.541 | 0.637 |
| CUACACUUCACGCAAUCGGUC [Fam1B.1 aminoacylation ribozyme variant] | 0.68 | 0.758 | 0.801 | 0.777 | 0.895 | 0.888 |
| CUACACUUGAAGCAAUCGGUC [Fam1B.1 aminoacylation ribozyme variant] | 0.507 | 0.583 | 0.662 | 0.597 | 0.509 | 0.64 |
| CUACAUCAAACAAACGGUCUG [Fam1A.1 aminoacylation ribozyme variant] | 1.01 | 0.771 | 1.07 | 1 | 1.09 | 0.901 |
| CUACAUCAAACAAUCGGUCAG [Fam1A.1 aminoacylation ribozyme variant] | 0.912 | 0.56 | 0.629 | 0.759 | 0.586 | 0.714 |
| CUACAUCAAACAAUCGGUCGG [Fam1A.1 aminoacylation ribozyme variant] | 1.36 | 1.16 | 0.773 | 0.954 | 0.994 | 0.981 |
| CUACAUCAAACAAUCGGUUUG [Fam1A.1 aminoacylation ribozyme variant] | 1.9 | 0.781 | 0.906 | 0.646 | 1.05 | 0.821 |
| CUACAUCAAACGAUCGGUCUG [Fam1A.1 aminoacylation ribozyme variant] | 0.836 | 0.78 | 0.728 | 0.657 | 0.778 | 0.93 |
| CUACCUCAAACAAUCGGUCAG [Fam1A.1 aminoacylation ribozyme variant] | 1.33 | 1.01 | 0.808 | 1.01 | 0.767 | 0.873 |
| CUACCUCAAACAAUCGGUCCG [Fam1A.1 aminoacylation ribozyme variant] | 1.05 | 1.9 | 1.04 | 1.15 | 1.2 | 1.18 |
| CUACCUCAAACAAUCGGUCUC [Fam1A.1 aminoacylation ribozyme variant] | 2.7 | 0.752 | 0.869 | 0.879 | 1.42 | 1.07 |
| CUACCUCAAAGAAUCGGUCUG [Fam1A.1 aminoacylation ribozyme variant] | 1.97 | 0.749 | 1.07 | 1.15 | 1.53 | 1.07 |
| CUACCUCACACAAUCGGUCUG [Fam1A.1 aminoacylation ribozyme variant] | 1.81 | 0.988 | 0.861 | 0.672 | 0.744 | 1.06 |
| CUACGACAAACAAUCGGUCUG [Fam1A.1 aminoacylation ribozyme variant] | 1.69 | 0.655 | 0.748 | 0.713 | 0.855 | 0.654 |
| CUACGUCAAACAAUCGAUCUG [Fam1A.1 aminoacylation ribozyme variant] | 0.827 | 0.617 | 0.801 | 0.903 | 1.06 | 0.794 |
| CUACGUCAAACAAUCGGGCUG [Fam1A.1 aminoacylation ribozyme variant] | 0.86 | 2.05 | 1.9 | 2.42 | 2.32 | 2.33 |
| CUACGUCAAACAAUCGGUAUG [Fam1A.1 aminoacylation ribozyme variant] | 1.02 | 1.11 | 1.12 | 1.39 | 1.53 | 1.12 |
| CUACGUCAAACACUCGGUCUG [Fam1A.1 aminoacylation ribozyme variant] | 10.9 | 1.83 | 1.85 | 1.6 | 2.65 | 2.18 |
| CUACGUCUAACAAUCGGUCUG [Fam1A.1 aminoacylation ribozyme variant] | 1.21 | 0.941 | 0.89 | 0.918 | 0.703 | 0.856 |
| CUACGUUAAACAAUCGGUCUG [Fam1A.1 aminoacylation ribozyme variant] | 0.927 | 1.17 | 1.19 | 1.16 | 1.05 | 1.19 |
| CUACUACAAAAAAUCGGUCUG [Fam1A.1 aminoacylation ribozyme variant] | 0.76 | 0.678 | 0.774 | 0.857 | 0.762 | 0.765 |
| CUACUACAAACAAUCGAUCUG [Fam1A.1 aminoacylation ribozyme variant] | 0.759 | 0.593 | 0.808 | 0.52 | 0.665 | 0.719 |
| CUACUACAAACAAUCGGUAUG [Fam1A.1 aminoacylation ribozyme variant] | 0.567 | 0.454 | 0.617 | 0.597 | 0.505 | 0.584 |
| CUACUACAAACACUCGGUCUG [Fam1A.1 aminoacylation ribozyme variant] | 0.434 | 0.902 | 1.08 | 0.856 | 0.703 | 1.03 |

| Sequence | self-aminoacylation [1] | self-aminoacylation [2] | self-aminoacylation [3] | self-aminoacylation [4] | self-aminoacylation [5] | self-aminoacylation [6] |
| --- | --- | --- | --- | --- | --- | --- |
| CUACUACAAUCAAUCGGUCUG [Fam1A.1 aminoacylation ribozyme variant] | 0.981 | 0.699 | 0.767 | 0.616 | 0.669 | 0.682 |
| CUACUCCAAACAAUCGCUCUG [Fam1A.1 aminoacylation ribozyme variant] | 1.32 | 0.949 | 1.11 | 0.783 | 0.596 | 0.884 |
| CUACUCCAAACAAUCGGUCUA [Fam1A.1 aminoacylation ribozyme variant] | 2.18 | 0.746 | 0.767 | 0.638 | 1.05 | 0.808 |
| CUACUCCAAACAAUGGGUCUG [Fam1A.1 aminoacylation ribozyme variant] | 0.772 | 0.799 | 0.948 | 0.784 | 0.754 | 0.863 |
| CUACUCCAAACAGUCGGUCUG [Fam1A.1 aminoacylation ribozyme variant] | 3.1 | 1.1 | 0.953 | 0.958 | 0.323 | 1.06 |
| CUACUCCAAACGAUCGGUCUG [Fam1A.1 aminoacylation ribozyme variant] | 0.979 | 0.91 | 0.854 | 0.643 | 0.445 | 0.812 |
| CUACUCCUAACAAUCGGUCUG [Fam1A.1 aminoacylation ribozyme variant] | 0.659 | 0.667 | 0.748 | 0.504 | 0.441 | 0.774 |
| CUACUGCAAACAAUCGCUCUG [Fam1A.1 aminoacylation ribozyme variant] | 3.05 | 1.2 | 1.2 | 0.898 | 0.702 | 1.08 |
| CUACUGCAAACAAUCGGUCUA [Fam1A.1 aminoacylation ribozyme variant] | 0.688 | 0.858 | 0.876 | 0.868 | 0.72 | 0.871 |
| CUACUGGAAACAAUCGGUCUG [Fam1A.1 aminoacylation ribozyme variant] | 0.507 | 0.885 | 0.887 | 0.933 | 0.514 | 0.837 |
| CUACUUAAAACAAUCAGUCUG [Fam1A.1 aminoacylation ribozyme variant] | 0.689 | 0.715 | 0.877 | 0.723 | 0.512 | 0.915 |
| CUACUUAAAACAAUCGGUAUG [Fam1A.1 aminoacylation ribozyme variant] | 0.513 | 0.53 | 0.556 | 0.55 | 0.339 | 0.574 |
| CUACUUAAAACAAUCGGUCAG [Fam1A.1 aminoacylation ribozyme variant] | 0.552 | 0.66 | 0.636 | 0.703 | 0.384 | 0.79 |
| CUACUUAAAACAAUCGGUGUG [Fam1A.1 aminoacylation ribozyme variant] | 0.821 | 0.96 | 0.596 | 0.72 | 1.17 | 0.684 |
| CUACUUAAAACAAUGGGUCUG [Fam1A.1 aminoacylation ribozyme variant] | 0.9 | 1.03 | 1.05 | 1.28 | 0.653 | 1.05 |
| CUACUUAAAUCAAUCGGUCUG [Fam1A.1 aminoacylation ribozyme variant] | 0.911 | 0.793 | 0.887 | 0.702 | 0.691 | 0.91 |
| CUACUUCAAAAAAUCGCUCUG [Fam1A.1 aminoacylation ribozyme variant] | 0.901 | 0.486 | 0.539 | 0.492 | 0.727 | 0.484 |
| CUACUUCAAAAAAUCGGUCUA [Fam1A.1 aminoacylation ribozyme variant] | 4.37 | 0.79 | 0.842 | 0.725 | 2.39 | 0.697 |
| CUACUUCAAAAGAUCGGUCUG [Fam1A.1 aminoacylation ribozyme variant] | 1.08 | 0.859 | 0.973 | 0.728 | 0.938 | 0.724 |
| CUACUUCAAACAAACGGGCUG [Fam1A.1 aminoacylation ribozyme variant] | 1.65 | 0.999 | 1.2 | 0.993 | 0.862 | 0.934 |
| CUACUUCAAACAAACGGUCAG [Fam1A.1 aminoacylation ribozyme variant] | 0.883 | 0.581 | 0.73 | 0.6 | 0.787 | 0.682 |
| CUACUUCAAACAAACUGUCUG [Fam1A.1 aminoacylation ribozyme variant] | 0.742 | 0.547 | 0.684 | 0.562 | 0.5 | 0.717 |
| CUACUUCAAACAACCCGUCUG [Fam1A.1 aminoacylation ribozyme variant] | 0.796 | 0.911 | 0.906 | 0.657 | 0.923 | 1.04 |
| CUACUUCAAACAACCGGUCUC [Fam1A.1 aminoacylation ribozyme variant] | 0.745 | 0.619 | 0.933 | 0.724 | 0.734 | 0.728 |
| CUACUUCAAACAACUGGUCUG [Fam1A.1 aminoacylation ribozyme variant] | 0.753 | 0.678 | 0.734 | 0.603 | 0.661 | 0.654 |
